Measured values published in US20240132622A1 (Bristol-Myers Squibb, published 2024).
Blank lines part the entries; values can stand above or below the binder they belong to.

What was measured:
[1] = target: T1, mouse PAD4 (mouse, UniProt Q9Z183 1-666); assay: SPR 37 C, antibody on anti-murine capture surface, PAD4 analyte, 2 mM CaCl2
T1 construct: also called mPAD4; murine PAD4
Protocol: SPR Methods. In general, SPR methods were as described in Example 3 above with the following modifications. An anti-murine capture surface was used that was prepared by immobilizing anti-murine capture antibody (Cytiva catalog #BR100838) onto flow cells of a CM5 biosensor following the manufacturer's amine coupling protocol (Cytiva catalog #BR-1006-33). SPR experiments were conducted at 37° C. using HBS-P (150 mM NaCl, 10 mM HEPES, pH 7.6, 0.05% Tween-20) (TEKNOVA catalog #H8032) with additional 500 mM NaCl and 2 mM CaCl₂) as running buffer. Several concentrations of PAD4, from 0.8 nM to 150 nM were prepared using the running buffer. The association and dissociation of the antibodies with PAD4 were measured. Two 90 second injections of 10 mM glycine pH 1.7 was used to regenerate the anti-murine capture surface.

[2] = target: T1, mouse PAD4; assay: cell-based or functional assay
[3] = target: T2, recombinant human PAD4 (human, UniProt Q9UM07 1-663); assay: SPR 37 C, captured antibody, PAD4 analyte, 1 mM CaCl2
T2 construct: also called rhPAD4; hPAD4
Protocol: Their binding to human PAD4 was measured by Surface Plasmon Resonance (SPR). SPR measurements were performed with a Biacore® 8K, 8K+, or T200 instrument (Cytiva). The association rate constants, kₒₙ, dissociation rate constants, koff, and equilibrium dissociation constants, KD, of the antibodies with PAD4 were determined from these SPR measurements.
(§1) For SPR measurements, either an anti-human capture surface or Protein A surface (Cytiva catalog #29127555) was used. Anti-human capture surface was prepared by immobilizing anti-human capture antibody (Cytiva catalog #29234600) onto flow cells of a CM5 or CM4 biosensor following the manufacturer's amine coupling protocol (Cytiva catalog #BR-1006-33). SPR experiments were conducted at 37° C. using HBS-P (150 mM NaCl, 10 mM HEPES, pH 7.6, 0.05% Tween-20) (TEKNOVA catalog #H8032) with additional 150 mM NaCl and 1 mM or 2 mM CaCl₂) (see Table 2) or 2 mM EDTA (see Table 3) as running buffer. Antibodies were diluted to 1.5 μg/mL in the running buffer, and were captured across active biosensor flow cells at 10 μL/min for 15 to 30 seconds. […] The association and dissociation of the antibodies with PAD4 were measured. One 30 second injection followed by one 15 second injection of 10 mM glycine pH 1.5 was used to regenerate the Protein A capture surface between assay cycles. For anti-human capture surface, two 30 second injections of 3 M MgCl₂ was used for regeneration. SPR measurements for mAb20 and mAb 13 SPR were done in the presence of 2 mM CaCl₂). The remaining antibodies were tested in the presence of 1 mM CaCl₂).
(§2) Rate constants kₒₙ and koff were derived from reference flow cell- and 0 nM blank-subtracted sensorgrams, and were fit to a 1:1 binding model in Biacore® Insight Evaluation software version 3.0.12.15655. Deviations from 1:1 binding model were observed, which may be caused by increased dimerization of PAD4 at higher concentrations. The equilibrium dissociation constant, KD, was calculated as the ratio of rate constants koff/kₒₙ for each PAD4 antibody.

[4] = target: extracellular matrix (ECM) proteins; assay: ECM plate ELISA (Matrigel), 1 uM antibody, A450 over wells without sample
[5] = target: T2, recombinant human PAD4; assay: SPR 37 C, captured antibody, PAD4 analyte, 1 mM CaCl2; 1 mM CaCl2, 37 C; mean of two or three experiments
Protocol: as §1, with “SPR measurements for mAb20 and mAb 13 SPR were done in the presence of 2 mM CaCl₂). The remaining antibodies were tested in the presence of 1 mM CaCl₂).” left out
as §2, with “Deviations from 1:1 binding model were observed, which may be caused by increased dimerization of PAD4 at higher concentrations.” left out, “antibody. […]” for “antibody.”

[6] = target: T2, recombinant human PAD4; assay: cell-based or functional assay
[7] = target: T2, recombinant human PAD4; assay: SPR 37 C, captured antibody, PAD4 analyte, 2 mM EDTA
Protocol: as §1
as §2, with “antibody. For those antibodies that were tested in multiple SPR experiments, the average value and standard deviation from two or three separate experiments are listed in Tables 2 and 3.” for “antibody.”

[8] = target: T2, recombinant human PAD4; assay: cell-based or functional assay; remark: listed apart in the source
[9] = target: T2, recombinant human PAD4; assay: SPR 37 C, captured antibody, PAD4 analyte, 2 mM CaCl2
Protocol: as §1
as §2, with “antibody. For those antibodies that were tested in multiple SPR experiments, the average value and standard deviation from two or three separate experiments are listed in Tables 2 and 3.” for “antibody.”

[10] = target: T2, recombinant human PAD4; assay: SPR 37 C, captured antibody, PAD4 analyte, 2 mM CaCl2; biphasic response, approximate KD; 2 mM CaCl2, 37 C; biphasic response
Protocol: as §1, with “SPR measurements for mAb20 and mAb 13 SPR were done in the presence of 2 mM CaCl₂). The remaining antibodies were tested in the presence of 1 mM CaCl₂).” left out
as §2, with “Deviations from 1:1 binding model were observed, which may be caused by increased dimerization of PAD4 at higher concentrations.” left out, “antibody. […]” for “antibody.”

[11] = target: T3, recombinant human GST-PAD4 fusion protein (human, UniProt Q9UM07 1-663); assay: BLI (BLITZ), GST-PAD4 on anti-GST biosensor
T3 construct: not shown: GST tag
Protocol: Affinity testing methods. Affinity of each antibody clone for a GST-PAD4 fusion protein was determined by Biolayer Interferometry (BLI) using a BLITZ instrument (Forte Bio, Menlo Park, California), using a biosensor chip (Anti-GST chip, Forte Bio, Cat. No. 18-5096). The biosensor was treated with citrate buffer, PBS, or PBS/Ca for 15 seconds; recombinant human GST-PAD4 was added on a drop holder for 80 seconds to prime the biosensor with PAD4; antibody was then added on the drop holder for 80 seconds to allow binding between antibody and the PAD4; PBS/PBS-Ca was added on the drop holder for 60 seconds to remove unbound antibody. The association rate constants, kₒₙ, dissociation rate constants, koff, and equilibrium dissociation constants, KD, were determined using BLITZ Pro Software, version 1.2.0.49.

[12] = target: T2, recombinant human PAD4; assay: cell-based or functional assay; remark: listed apart in the source
[13] = target: T4, N-His-TVMV-PAD4 (human, UniProt Q9UM07 1-663); assay: complex purified by size exclusion chromatography; cryo-EM
T4 construct: E. coli expressed; used for the cryo-EM complex with clone 13 Fab, seen as a 2:2 assembly; also called Human PAD4 (1-663); full-length PAD4 construct with cleavable N-terminal his tag
T4 chain: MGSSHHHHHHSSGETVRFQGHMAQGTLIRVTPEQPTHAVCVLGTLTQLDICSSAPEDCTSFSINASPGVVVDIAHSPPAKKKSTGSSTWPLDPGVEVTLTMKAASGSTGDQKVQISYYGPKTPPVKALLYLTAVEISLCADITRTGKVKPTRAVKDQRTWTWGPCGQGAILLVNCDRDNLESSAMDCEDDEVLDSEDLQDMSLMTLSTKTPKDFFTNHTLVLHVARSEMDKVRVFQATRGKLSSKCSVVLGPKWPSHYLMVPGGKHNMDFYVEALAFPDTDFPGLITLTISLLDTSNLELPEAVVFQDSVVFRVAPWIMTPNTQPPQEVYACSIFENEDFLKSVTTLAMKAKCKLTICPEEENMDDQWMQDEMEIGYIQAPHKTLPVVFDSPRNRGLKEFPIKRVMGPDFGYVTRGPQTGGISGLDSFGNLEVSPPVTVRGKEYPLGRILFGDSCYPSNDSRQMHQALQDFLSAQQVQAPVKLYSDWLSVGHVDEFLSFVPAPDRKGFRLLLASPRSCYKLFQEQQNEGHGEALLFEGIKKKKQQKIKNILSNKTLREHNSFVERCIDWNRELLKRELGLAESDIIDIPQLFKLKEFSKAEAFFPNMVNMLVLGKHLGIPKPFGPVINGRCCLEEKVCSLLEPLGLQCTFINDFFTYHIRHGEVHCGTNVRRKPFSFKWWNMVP

T1 sequence (Q9Z183 whole entry): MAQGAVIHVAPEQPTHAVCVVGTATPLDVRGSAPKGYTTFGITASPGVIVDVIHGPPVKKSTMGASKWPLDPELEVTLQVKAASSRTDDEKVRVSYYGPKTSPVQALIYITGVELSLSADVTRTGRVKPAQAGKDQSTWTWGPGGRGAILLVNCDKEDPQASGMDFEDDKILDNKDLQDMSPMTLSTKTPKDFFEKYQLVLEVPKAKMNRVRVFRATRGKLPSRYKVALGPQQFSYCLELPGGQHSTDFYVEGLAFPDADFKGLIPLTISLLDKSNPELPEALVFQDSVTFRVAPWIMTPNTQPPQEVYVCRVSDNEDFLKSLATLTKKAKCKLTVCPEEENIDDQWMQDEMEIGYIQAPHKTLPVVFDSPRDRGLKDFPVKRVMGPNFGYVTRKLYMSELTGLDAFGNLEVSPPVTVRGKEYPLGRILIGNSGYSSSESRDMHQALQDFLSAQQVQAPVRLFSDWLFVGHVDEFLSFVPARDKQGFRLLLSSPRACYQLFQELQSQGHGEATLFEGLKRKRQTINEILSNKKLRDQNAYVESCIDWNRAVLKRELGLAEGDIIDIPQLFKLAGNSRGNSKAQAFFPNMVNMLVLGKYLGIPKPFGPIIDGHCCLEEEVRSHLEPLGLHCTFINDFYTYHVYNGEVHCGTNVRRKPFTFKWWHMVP
T2 sequence (Q9UM07 whole entry): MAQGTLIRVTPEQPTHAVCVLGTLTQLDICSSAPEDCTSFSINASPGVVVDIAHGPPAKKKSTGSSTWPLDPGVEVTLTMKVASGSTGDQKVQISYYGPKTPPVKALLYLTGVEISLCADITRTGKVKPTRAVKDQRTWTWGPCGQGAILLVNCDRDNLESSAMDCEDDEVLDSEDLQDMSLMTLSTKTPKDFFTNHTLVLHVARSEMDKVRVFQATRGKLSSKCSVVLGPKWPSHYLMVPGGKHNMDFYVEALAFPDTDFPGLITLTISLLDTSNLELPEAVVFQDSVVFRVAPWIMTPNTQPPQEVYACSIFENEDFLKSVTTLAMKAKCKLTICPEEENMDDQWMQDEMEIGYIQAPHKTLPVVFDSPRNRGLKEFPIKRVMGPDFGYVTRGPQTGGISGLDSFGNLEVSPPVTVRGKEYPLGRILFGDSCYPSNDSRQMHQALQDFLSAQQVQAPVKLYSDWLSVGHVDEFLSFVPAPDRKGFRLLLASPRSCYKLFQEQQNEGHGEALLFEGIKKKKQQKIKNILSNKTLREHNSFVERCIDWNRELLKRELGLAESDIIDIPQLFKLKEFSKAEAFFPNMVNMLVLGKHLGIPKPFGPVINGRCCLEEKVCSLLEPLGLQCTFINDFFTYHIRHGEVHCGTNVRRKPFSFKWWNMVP

B1: mumAb (antibody, mouse IgG1, kappa, V domains shown)
VH: EVQLQQPGAELVKPGASVKLSCKASDHTFTTYWIHWVKQRPGRGLEWIGRIGPNSGGSKYNEKFRTKATLTVDKPSSTAYMQLSSLKSEDSAVYFCAFSNYLDYLDYWGQGTTLTVSS
VL: DIVLTQSPASLAVSLGQRATISCKASQSVDHDGEGYMNWYQQKPGQPPKLLIYAASNLESGIPARFSGSGSGTDFTLNIHPVEEEDAATYYCQQINEDPYTFGGGTKLEIKR
notes: Formatted as mIgG1-D265A; also called anti-murine PAD4 mAb; mouse anti-mPAD4 mumAb antibody
Kd [1]: 0.7 nM
koff [1]: 0.0002 s⁻¹
kon [1]: 290000 M⁻¹ s⁻¹
IC50, mPAD4 citrullination of peptide …, RapidFire MS, 50 nM mPAD4 [2]: 13.2 nM

B2: hz20-1 (antibody, V domains shown)
VH: QVQLVQSGAEVKKPGASVKVSCKASGYTFTNYGISWVRQAPGQGLEWMGEIYPRSGNTYHNEKFKDRVTMTRDTSTSTVYMELSSLRSEDTAVYYCARSMITTRYWYFDVWGKGTTVTVSS
VL: DIVMTQSPDSLAVSLGERATINCRASESVDTYGNSFMHWYQQKPGQPPKLLIYLASNLESGVPDRFSGSGSGTDFTLTISSLQAEDVAVYYCQQNNEDPLTFGAGTKLELK
notes: light constant region not tied to this antibody
Kd [3]: 2.7 nM
koff [3]: 0.00089 s⁻¹
ECM Score (1 µM) [4]: 1
kon [5]: 550000 M⁻¹ s⁻¹
IC50 (average), PAD4 citrullination of peptide …, RapidFire MS [6]: 77 nM
Kd [7]: 2.6 nM
koff [7]: 0.00054 s⁻¹
kon [7]: 220000 M⁻¹ s⁻¹

Now from value to binder:

IC50 of inhibition of PAD4 activity (% Activity against [AB Clone 20] nM) [8]: 39.6 nM
koff [9]: 0.0062 s⁻¹
kon [9]: 43000 M⁻¹ s⁻¹
Kd [10]: ~150 nM
Kd [11]: < 1.71 nM
koff [11]: < 1e-06 s⁻¹
kon [11]: 583 M⁻¹ s⁻¹
IC50 (average), PAD4 citrullination of peptide …, RapidFire MS [6]: 104 nM
B3: clone 20 (mAb20) (antibody, V domains shown)
VH: QVQLQQSGAELARPGASVKLSCKATGYTFTNYGISWVKQRTGQGLEWIGEIYPRSGNTYHNEKFKDKATLTADKSSSTAYMEFRSLTSEDSAVYFCARSMITTRYWYFDVWGKGTTVTVSS
VL: NIVLTQSPASLAVSLGQRATLSCRASESVDTYGNSFMHWYQQKPGQPPKLLIYLASNLESGVPARFSGSGSRTDFTLTIDPVEADDAATYYCQQNNEDPLTFGAGTKLELK
notes: Murine anti-human PAD4 antibody; also called murine anti-human clone 20 antibody

IC50 of inhibition of PAD4 activity (% Activity against [AB Clone 13] nM) [12]: 10.1 nM
Kd [9]: 3.2 nM
koff [9]: 0.0011 s⁻¹
kon [9]: 350000 M⁻¹ s⁻¹
Kd [11]: < 0.0244 nM
koff [11]: < 1e-06 s⁻¹
kon [11]: 41100 M⁻¹ s⁻¹
IC50 (average), PAD4 citrullination of peptide …, RapidFire MS [6]: 30 nM
B4: clone 13 (mAb13) (antibody, V domains shown)
VH: EVLLQQSGAELVKPGASVRLSCTSSDFNIKDHFIHWVKQRTEQGLEWIGRIDPEDDETKYAPKFQDKVTITADTSSNTAYLQLSSLTSEDTAVFYCAGYGNYEGAMDYWGQGTSVTVSS
VL: DIVLTQSPTSLGVSPGQRATLSCRASENVNNYGIGFMNWFQQKPGQPPKLLIYAASRRGSGVPARFSGSGSGTDFSLNIHPMEEDDTAMYFCQQSKEVPYTFGGGTNLEIR
notes: Murine anti-human PAD4 antibody; also called murine anti-human clone 13 antibody

binding result [13]: binds
B5: clone 13 Fab (Fab, V domains shown)
VH: B4 VH
VL: DIVLTQSPTSLGVSPGQRATLSCRASENVNNYGIGFMNWFQQKPGQPPKLLIYAASRRGSGVPARFSGSGSGTDFSLNIHPMEEDDTAMYFCQQSKEVPYTFGGGTNLEIRR
notes: Heavy chain fragment with C-terminal His-tag; murine constant regions; also called Fab of clone 13; Fab13
